Experimental findings from the RNAGym collection of RNA variant scans (doi:10.7554/elife.80360) are described below.

The labels stand for the following.
B1: Hammerhead Ribozyme (parent)
chain: ACCGGAUGUGCUUUCCGGUCUGAUGAGUCCGUGAGGACGAAACAG

This data set covers variants of B1. Nature of the data set: self-cleavage, relative activity (ratio to wild type); higher = more cleavage; co-transcriptional.
Take ACCGGAUGUGCUUUCGGGUCUGAUGAGUCCGCGAGGACGAAACAG: the self-cleavage amounted to 0.717.

For the variant ACCGGAUGUGCUUUCGGGUCUGAUGAGUCCGAGAGGACGAAACAG, the self-cleavage was 1.03.

ACCGGAUGUGCUUUCGGGUCUGAUGAGUCCGGGAGGACGAAACAG: the self-cleavage turned out to be 0.882.

As for ACCGGAUGUGCUUUCGGGUCCGAUGAGUCCGUGAGGACGAAACAG, the self-cleavage worked out at 0.354.

Regarding ACCGGAUGUGCUUUCGGGUCGGAUGAGUCCGUGAGGACGAAACAG, the self-cleavage worked out at 0.278.

On to ACCGGAUGUGCUUUCUAGUCUGAUGAGUCCGUGAGGACGAAACAG, for which the self-cleavage came out at 0.556.

For ACCGGAUGUGCUUUCUCGUCUGAUGAGUCCGUGAGGACGAAACAG, the self-cleavage was found to be 0.551.

With ACCGGAUGUGCUUUCUUGUCUGAUGAGUCCGUGAGGACGAAACAG, the self-cleavage was 0.714.

Take ACCGGAUGUGCUUUCUGAUCUGAUGAGUCCGUGAGGACGAAACAG: the self-cleavage amounted to 0.618.

In the case of ACCGGAUGUGCUUUCUGCUCUGAUGAGUCCGUGAGGACGAAACAG, the self-cleavage was 0.529.

For the variant ACCGGAUGUGCUUUCUGUUCUGAUGAGUCCGUGAGGACGAAACAG, the self-cleavage came out at 0.746.

Regarding ACCGGAUGUGCUUUCUGGUCUGAUGAGUGCGUGAGGACGAAACAG, the self-cleavage is 0.69.

Turning to ACCGGAUGUGCUUUCUGGUCUGAUGAGUUCGUGAGGACGAAACAG, the self-cleavage was 0.988.

For the variant ACCGGAUGUGCUUUCUGGUCUGAUGAGUACGUGAGGACGAAACAG, the self-cleavage was found to be 0.586.

In the case of ACCGGAUGUGCUUUCUGGUCUGAUGAGUCCGUGGGGACGAAACAG, the self-cleavage was found to be 1.08.

As to ACCGGAUGUGCUUUCUGGUCUGAUGAGUCCGUGUGGACGAAACAG, the self-cleavage turned out to be 0.755.

In the case of ACCGGAUGUGCUUUCUGGUCUGAUGAGUCCGUGCGGACGAAACAG, the self-cleavage worked out at 1.

In the case of ACCGGAUGUGCUUUCUGGUCUGAUGAGUCGGUGAGGACGAAACAG, the self-cleavage is 0.719.

Take ACCGGAUGUGCUUUCUGGUCUGAUGAGUCAGUGAGGACGAAACAG: the self-cleavage was found to be 0.831.

With ACCGGAUGUGCUUUCUGGUCUGAUGAGUCUGUGAGGACGAAACAG, the self-cleavage is 1.02.

As to ACCGGAUGUGCUUUCGGGUCUGAUGAGGCCGUGAGGACGAAACAG, the self-cleavage came out at 0.592.

ACCGGAUGUGCUUUCGGGUCUGAUGAGACCGUGAGGACGAAACAG: the self-cleavage was 0.407.

Take ACCGGAUGUGCUUUCGGGUCUGAUGAGCCCGUGAGGACGAAACAG: the self-cleavage amounted to 0.269.

Turning to ACCGGAUGUGCUUUCUGGUCUGAUGAGUCCGUGAGGACGAAACAG, the self-cleavage is 0.983.

Consider ACCGGAUGUGCUUUCUGGUCUGCUGAGUCCGUGAGGACGAAACAG, for which the self-cleavage was determined as 0.474.

Regarding ACCGGAUGUGCUUUCUGGUCUGUUGAGUCCGUGAGGACGAAACAG, the self-cleavage came to 0.358.

Regarding ACCGGAUGUGCUUUCUGGUCUGGUGAGUCCGUGAGGACGAAACAG, the self-cleavage came to 0.423.

Turning to ACCGGAUGUGCUUUCUGGUCUGAUGUGUCCGUGAGGACGAAACAG, the self-cleavage was 0.816.

Consider ACCGGAUGUGCUUUCUGGUCUGAUGGGUCCGUGAGGACGAAACAG, for which the self-cleavage worked out at 0.358.

As for ACCGGAUGUGCUUUCUGGUCUGAUGCGUCCGUGAGGACGAAACAG, the self-cleavage came to 0.467.

As for ACCGGAUGUGCUUUCGGGUCUGAAGAGUCCGUGAGGACGAAACAG, the self-cleavage is 0.751.

In the case of ACCGGAUGUGCUUUCGGGUCUGACGAGUCCGUGAGGACGAAACAG, the self-cleavage was found to be 0.942.

In the case of ACCGGAUGUGCUUUCGGGUCUGAGGAGUCCGUGAGGACGAAACAG, the self-cleavage amounted to 0.611.

Take ACCGGAUGUGCUUUCUGGUUUGAUGAGUCCGUGAGGACGAAACAG: the self-cleavage worked out at 0.651.

Take ACCGGAUGUGCUUUCUGGUGUGAUGAGUCCGUGAGGACGAAACAG: the self-cleavage worked out at 0.307.

As to ACCGGAUGUGCUUUCUGGUAUGAUGAGUCCGUGAGGACGAAACAG, the self-cleavage was 0.524.

With ACCGGAUGUGCUUUCUGGUCUGAUGAGUCCGUGAGGACGAAUCAG, the self-cleavage is 0.273.

With ACCGGAUGUGCUUUCUGGUCUGAUGAGUCCGUGAGGACGAAGCAG, the self-cleavage amounted to 0.232.

In the case of ACCGGAUGUGCUUUCUGGUCUGAUGAGUCCGUGAGGACGAACCAG, the self-cleavage stood at 0.363.

On to ACCGGAUGUGCUUUCUGGUCUGAUGAGUCCGUGAGGUCGAAACAG, for which the self-cleavage was determined as 0.848.

With ACCGGAUGUGCUUUCUGGUCUGAUGAGUCCGUGAGGGCGAAACAG, the self-cleavage came out at 1.02.

Regarding ACCGGAUGUGCUUUCUGGUCUGAUGAGUCCGUGAGGCCGAAACAG, the self-cleavage is 0.843.

With ACCGGAUGUGCUUUCUGGUCUGAUGAGUCCGUGAGGACGAAACCG, the self-cleavage worked out at 0.586.

Take ACCGGAUGUGCUUUCUGGUCUGAUGAGUCCGUGAGGACGAAACGG: the self-cleavage worked out at 1.34.

ACCGGAUGUGCUUUCUGGUCUGAUGAGUCCGUGAGGACGAAACUG: the self-cleavage is 0.845.

Regarding ACCGGAUGUGCUUUCUGGUCUGAUGAGUCCGUGAGGACGCAACAG, the self-cleavage turned out to be 0.507.

ACCGGAUGUGCUUUCUGGUCUGAUGAGUCCGUGAGGACGGAACAG: the self-cleavage stood at 0.294.

For ACCGGAUGUGCUUUCUGGUCUGAUGAGUCCGUGAGGACGUAACAG, the self-cleavage came to 0.301.

As for ACCGGAUGUGCUUUCUGGUCUGAUGAGUCCGUGAGGAUGAAACAG, the self-cleavage came to 1.03.

Turning to ACCGGAUGUGCUUUCUGGUCUGAUGAGUCCGUGAGGAAGAAACAG, the self-cleavage worked out at 0.73.

In the case of ACCGGAUGUGCUUUCUGGUCUGAUGAGUCCGUGAGGAGGAAACAG, the self-cleavage stood at 0.717.

ACCGGAUGUGCUUUCUGGUCUGAUGAGUCCGUGAGGACGAAAAAG: the self-cleavage was 0.352.

On to ACCGGAUGUGCUUUCUGGUCUGAUGAGUCCGUGAGGACGAAAGAG, for which the self-cleavage came to 0.352.

Regarding ACCGGAUGUGCUUUCUGGUCUGAUGAGUCCGUGAGGACGAAAUAG, the self-cleavage came to 0.495.

As for ACCGGAUGUGCUUUCUGGUCUGAUGAGUCCGUGAGGACGACACAG, the self-cleavage stood at 0.301.

Turning to ACCGGAUGUGCUUUCUGGUCUGAUGAGUCCGUGAGGACGAUACAG, the self-cleavage is 0.264.

ACCGGAUGUGCUUUCUGGUCUGAUGAGUCCGUGAGGACGAGACAG: the self-cleavage was 0.376.
